How the values were obtained:
Assay in all cases: cell-based or functional assay
[1] = target: Chimeric antigen receptor containing a VL-VH scFv (VL and VH of antibody 17363N) recognizing T3 (HLA)
[2] = target: OT-I TCR (Ovalbumin(257-264)-specific) on CD8+ T cells of an OT-I TCR transgenic mouse (mouse); settings: scale: orders of magnitude higher potency than T5-IL2M6
[3] = target: IL2 receptors (on lymphocyte populations of human PBMCs)

## T3-IL2M6: HPV16E7(11-19)-GCGGS-(GGGGS)2-hB2m-(GGGGS)4-hHLA.A2-(GGGGS)4-Fc-(GGGGS)3-hIL2(H16A, F42A) (peptide-MHC)
[1]
  frequency of viable CAR-T (eGFPPos) cells at day 3 of expansion (start 38%): 36%

## T4-IL2M6: OVA(257-264)-GCGGS-(GGGGS)2-mB2m-(GGGGS)4-mH2Kb-(GGGGS)4-Fc-(GGGGS)3-hIL2(H16A, F42A) (peptide-MHC)
[2]
  intracellular STAT5 phosphorylation in gated CD8+ T cells of OT-I splenocytes: 2

## IL2M5: Fc-GGGGS-human IL2 (N88D, C125A) fusion (Fc fusion)
[3]
  potency in STAT5 phosphorylation on multiple lymphocyte populations, against IL2M4 (fold less potent than IL2M4): > 100

## IL2M2: Human IL2-(GGGGS)4-human IL-2Ra-GGGGS-Fc (Fc fusion)
[3]
  potency in STAT5 phosphorylation on multiple lymphocyte populations, against IL2M0 (fold less potent than IL2M0): 100
